What was measured:
[1] = biological target: Abl 1 substrate, SEQ ID NO: 3 (…), modified with 7-hydroxycoumarin and 5-FAM; assay: cell-based or functional assay
[2] = system: T1, Akt 1 substrate, SEQ ID NO: 59 (ARPRAFSVGK), modified with 7-hydroxycoumarin and 5-FAM
T1 sequence: ARPRAFSVGK

[3] = biological target: Akt 1 substrate, SEQ ID NO: 59 (…), modified with 7-hydroxycoumarin and 5-FAM; assay: cell-based or functional assay
[4] = system: T2, SEQ ID NO: 47 (ALRRFSLGEK), modified as described
T2 sequence: ALRRFSLGEK

[5] = system: T3, SEQ ID NO: 109 (ARPRAFS*VGK), labelled phosphopeptide
T3 sequence: ARPRAFSVGK

[6] = system: T4, SEQ ID NO: 110 (RRRQFS*LRRKAK), labelled phosphopeptide
T4 sequence: RRRQFSLRRKAK

[7] = system: T5, SEQ ID NO: 103 (GDQDYLS*LDK), labelled phosphopeptide
T5 sequence: GDQDYLSLDK

[8] = system: T6, SEQ ID NO: 113 (RPRTFSS*LAEGK), labelled phosphopeptide
T6 sequence: RPRTFSSLAEGK

[9] = system: T7, SEQ ID NO: 100 (RGGLFS*TTPGGTK), labelled phosphopeptide
T7 sequence: RGGLFSTTPGGTK

[10] = biological target: T8, SEQ ID NO: 31 (EEEIY*GVIEK), labelled phosphopeptide
T8 chain: EEEIYGVIEK

Abl 1 kinase (from UniProt P00519 1-1130) (enzyme)
% of substrate phosphorylated in the 0% inhibition control (1.5 ng Abl 1/well, 10 µM ATP) [1]: 30%

Akt 1 kinase
% Phosphorylation at 5.0 ng Akt 1 kinase per well [2]: 8% | % Phosphorylation at 10.0 ng Akt 1 kinase per well [2]: 12% | % Phosphorylation at 25.0 ng Akt 1 kinase per well [2]: 20% | % Phosphorylation at 37.5 ng Akt 1 kinase per well [2]: 28% | % Phosphorylation at 42.0 ng Akt 1 kinase per well [2]: 30% | % Phosphorylation at 50.0 ng Akt 1 kinase per well [2]: 33% | % Phosphorylation at 75.0 ng Akt 1 kinase per well [2]: 38% | % Phosphorylation at 100.0 ng Akt 1 kinase per well [2]: 43% | % Phosphorylation at 150.0 ng Akt 1 kinase per well [2]: 50%

Akt 1 kinase (from UniProt P31749 1-480) (enzyme)
% of substrate phosphorylated in the 0% inhibition control (42 ng Akt 1/well, 10.5 µM ATP) [3]: 30%

PKA
% phosphorylation by PKA (kinase titration, FRET/chymotrypsin read-out) [4]: SEQ ID NO: 47 modified as described, is the best substrate for the kinase because it yielded maximal phosphorylation even at low kinase concentrations

PP2A
phosphatase substrate screen (dephosphorylation, FRET/chymotrypsin read-out) [5]: SEQ ID NOs: 103, 109, 110, and 113 were substrates of PP2A | phosphatase substrate screen (dephosphorylation, FRET/chymotrypsin read-out) [6]: SEQ ID NOs: 103, 109, 110, and 113 were substrates of PP2A | phosphatase substrate screen (dephosphorylation, FRET/chymotrypsin read-out) [7]: SEQ ID NOs: 103, 109, 110, and 113 were substrates of PP2A | phosphatase substrate screen (dephosphorylation, FRET/chymotrypsin read-out) [8]: SEQ ID NOs: 103, 109, 110, and 113 were substrates of PP2A

PP2B
phosphatase substrate screen (dephosphorylation, FRET/chymotrypsin read-out) [9]: SEQ ID NOs: 100 and 110 were substrates of PP2B | phosphatase substrate screen (dephosphorylation, FRET/chymotrypsin read-out) [6]: SEQ ID NOs: 100 and 110 were substrates of PP2B

PP2C
phosphatase substrate screen (dephosphorylation, FRET/chymotrypsin read-out) [5]: SEQ ID NOs: 100, 109, and 110 were substrates of PP2C | phosphatase substrate screen (dephosphorylation, FRET/chymotrypsin read-out) [9]: SEQ ID NOs: 100, 109, and 110 were substrates of PP2C | phosphatase substrate screen (dephosphorylation, FRET/chymotrypsin read-out) [6]: SEQ ID NOs: 100, 109, and 110 were substrates of PP2C

B1: PTP1B (protein)
chain: MEMEKEFEQIDKSGSWAAIYQDIRHEASDFPCRVAKLPKNKNRNRYRDVSPFDHSRIKLHQEDNDYINASLIKMEEAQRSYILTQGPLPNTCGHFWEMVWEQKSRGVVMLNRVMEKGSLKCAQYWPQKEEKEMIFEDTNLKLTLISEDIKSYYTVRQLELENLTTQETREILHFHYTTWPDFGVPESPASFLNFLFKVRESGSLSPEHGPVVVHCSAGIGRSGTFCLADTCLLLMDKRKDPSSVDIKKVLLEMRKFRMGLIQTADQLRFSYLAVIEGAKFIMGDSSVQDQWKELSHEDLEPPPEHIPPPPRPPKRILEPHN
phosphatase substrate screen (dephosphorylation, FRET/chymotrypsin read-out) [10]: SEQ ID NO: 31 was a substrate for both PTP1B and LAR

B2: LAR (protein)
chain: KRKRTHSPSSKDEQSIGLKDSLLAHSSDPVEMRRLNYQTPGMRDHPPIPITDLADNIERLKANDGLKFSQEYESIDPGQQFTWENSNLEVNKPKNRYANVIAYDHSRVILTSIDGVPGSDYINANYIDGYRKQNAYIATQGPLPETMGDFWRMVWEQRTATVVMMTRLEEKSRVKCDQYWPARGTETCGLIQVTLLDTVELATYTVRTFALHKSGSSEKRELRQFQFMAWPDHGVPEYPTPILAFLRRVKACNPLDAGPMVVHCSAGVGRTGCFIVIDAMLERMKHEKTVDIYGHVTCMRSQRNYMVQTEDQYVFIHEALLEAATCGHTEVPARNLYAH
phosphatase substrate screen (dephosphorylation, FRET/chymotrypsin read-out) [10]: SEQ ID NO: 31 was a substrate for both PTP1B and LAR

— patent US20100240080A1
